Source: the nanobody polyreactivity screen of Harvey et al. (2022)

Assay: yeast display, Sf9 membrane polyspecificity reagent, FACS + sequencing; frameworks hold sequencing errors
Summary of the method: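 Sorting gates, low and high (top ~1%), were placed on anti-HA fluorescence to track expression and on streptavidin fluorescence to track reagent binding. A clone's polyreactivity label is taken from the gate it came out of. The reagent was 10% biotinylated, detergent-solubilized Sf9 membrane, applied for 1 hour at 4 °C to galactose-induced yeast display cells.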

Row | Sequence | polyreactivity (PSR sort gate)
1 | QVQLVESGGGLVQAGGSLRLSCAASGSIFWTNAMGWYRQAPGKERELVAAITSGGNTNYADSVKGRFTISRDNAKNTVYLQMNSLKPEDTAVYYCAARYGRGWRRTYTQYDSWGQGTQVTVSS | low polyreactivity
2 | QVQLVESGGGLVQAGGSLRLSCAASGSIFWTYAMGWYRQAPGKERELVAGIRWSGGTTYADSVKGRFTISRDNAKNTVYLQMNSLKPEDTAVYYCNHYLSTYHGTFTYGYWGQGTQVTVSS | low polyreactivity
3 | QVQLVESGGGLVQAGGSLRLSCAASGSIFWVYAMGWSRQAPGKERELVAAISNSGSTNYADSVKGRFTISRDNAKNTVYLQMNSLKPEDTAVYYCAKDSLVDHVGGYDYWGQGTQVTVSS | low polyreactivity
4 | QVQLVESGGGLVQAGGSLRLSCAASGSIFWVYAMGWYRPAPGKERELVAGISSGGSTNYADSVKGRCTISRDTAKKTVYLQMNSLKPEDTAVYYCAAVIRTVRERYGYWGQGTQVTVSS | high polyreactivity
5 | QVQLVESGGGLVQAGGSLRLSCAASGSIFWVYVMGWYRQAPGKEREFVAAISSSGGRTYYADSVKGRFTISRDNAKNTVYLQMNRLKPEDTAVYYCAARRYWWYSASAMDYWGQGTQVTVSS | high polyreactivity
6 | QVQLVESGGGLVQAGGSLRLSCAASGSIFWWNAMGWYRQAPGKERELVAAISYSGGSTYYADSVKGRFTISRDNAKKTVYLQRNSLKPEDTAVYYCAATKFRYYGYDYWGQGTQVTVSS | low polyreactivity
7 | QVQLVESGGGLVQAGGSLRLSCAASGSIFWWNAMGWYRQAPGKERELVAGITKIGSSTYYADSVKGRFTISRDNAKNTVYLQMNSLKPEDTAVYYCNAYGPNIYSSRYDYWGQGTQVTVSS | low polyreactivity
8 | QVQLVESGGGLVQAGGSLRLSCAASGSIFWWYAMGWYRQAPGKERELVAAIRWSGTTTFYADSLKGRFTISRDNAKNNVFLQMKSLKPEDTAVYYCNAEGGIWGVTSGYDYWGQGTQVTVSS | low polyreactivity
9 | QVQLVESGGGLVQAGGSLRLSCAASGSIFWYNAMGWSRPAPGKERELVAAITWSGGSTYYADSVKGRFTISRDNAKNTVYLQMNSLKPEDTAVYYCATVPHYYYDYDYWGQGTQVTVSS | low polyreactivity
10 | QVQLVESGGGLVQAGGSLRLSCAASGSIFWYNAMGWYRQAPGKESELVAAISWDGGSTYYADSVKGRFTISRDNAKNTVYLQMNSLKPEDTAVYYCNRVYIVWYTRYVVSGWYDYWGQGTEVTVSS | high polyreactivity
11 | QVQLVESGGGLVQAGGSLRLSCAASGSIFWYYAMGWYRQAPGKERELVADITSTGGSTYYADSVKGRFTISRDNAKNTVYLQMNSLKPEDTAVYYCAADNTYSEEDYWGQGTQVNVSS | high polyreactivity
12 | QVQLVESGGGLVQAGGSLRLSCAASGSIFWYYAMGWYRQAPGKERELVARITYSSGSTYYADSVKGRFTISRDNAKNTVYLQMNSLKPEDTAVFYCAVRLYSYLYNPFNYWGQGTQVTVSS | high polyreactivity
13 | QVQLVESGGGLVQAGGSLRLSCAASGSIFWYYAMGWYRQAPGKERELVATIRKRSGSTYYADSVKGRFTISRDNAKNTVYLQMNSLKPEDTAVYYCAADYTAYGYDYWGQGTQVTVSS | low polyreactivity
14 | QVQLVESGGGLVQAGGSLRLSCAASGSIFWYYTMGWYRQAPGKERELVATITRSGSRTYYADSVKGRFTISRDNAKNTVYLQMNSLNPEDTAVYYCAKDFGRWTYDYWGQATQVTVSS | low polyreactivity
15 | QVQLVESGGGLVQAGGSLRLSCAASGSIFYAYAMGWYIQAPGKERELVAGINTRGGSTYYADSVKGRFTISRDNAKNTVYLQMNSLKPEDTAVYYCAKGTAPIPYRGRVGTSKSDYWGQGTQVTVSS | low polyreactivity
16 | QVQLVESGGGLVQAGGSLRLSCAASGSIFYAYTMGWYRQAPGKERELVARITQSDDGTYYADSVKGRFTISRDNAKNTVYLQMNSLKPEDTAVYYCAVVFWQLAHRYDYWGQGTQVTVSS | low polyreactivity
17 | QVQLVESGGGLVQAGGSLRLSCAASGSIFYENAMGWYRQAPGKERELVAAISRSGGSTYYADSVKGRFTISRDNAKNTVYLQMNSLKPEDTAVYYCAADVYVFIGDYWGQGTQVTVSS | low polyreactivity
